Drawing on publication PMC8594078, this text covers IC50 for 2 molecules.

Where two headings read alike, the source gives them in different places.

One may read the IC50 as the point on the concentration scale where inhibition reaches its midpoint. A high value points to lower potency.

Data set [1] addresses T1, biotinylated human ACE2 (Acrobiosystems EP-105 kit) (Homo sapiens, UniProt Q9BYF1 18-740). Description: competition ELISA. (An ELISA detects its analyte on a solid surface through an enzyme-linked reagent.)
The target of data set [2] is T1, biotinylated human ACE2 (Acrobiosystems …). Description: competition ELISA. The source holds these as a separate data set.

T1 sequence (Q9BYF1 18-740): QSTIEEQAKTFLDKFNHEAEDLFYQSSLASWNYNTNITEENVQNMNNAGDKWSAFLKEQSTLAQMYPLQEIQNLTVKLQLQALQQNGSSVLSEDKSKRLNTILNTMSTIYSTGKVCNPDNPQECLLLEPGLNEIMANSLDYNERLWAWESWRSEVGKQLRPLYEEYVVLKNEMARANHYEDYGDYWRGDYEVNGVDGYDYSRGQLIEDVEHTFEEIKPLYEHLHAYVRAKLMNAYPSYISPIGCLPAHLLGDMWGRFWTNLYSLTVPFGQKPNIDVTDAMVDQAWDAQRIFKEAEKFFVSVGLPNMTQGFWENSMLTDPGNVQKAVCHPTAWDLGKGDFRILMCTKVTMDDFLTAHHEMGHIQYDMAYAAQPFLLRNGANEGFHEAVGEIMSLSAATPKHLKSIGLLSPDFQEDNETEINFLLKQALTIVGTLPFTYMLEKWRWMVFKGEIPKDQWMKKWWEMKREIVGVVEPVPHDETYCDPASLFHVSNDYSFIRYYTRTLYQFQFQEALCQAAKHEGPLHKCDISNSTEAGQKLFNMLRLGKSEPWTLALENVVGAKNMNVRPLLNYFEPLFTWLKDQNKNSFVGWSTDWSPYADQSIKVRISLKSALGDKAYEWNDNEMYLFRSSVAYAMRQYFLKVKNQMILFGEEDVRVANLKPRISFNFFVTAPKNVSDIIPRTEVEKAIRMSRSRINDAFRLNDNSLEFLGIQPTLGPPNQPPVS

B1: Apt 14 (ssDNA)
DNA: ATAGTCCCTGGCGTGCTTCCGCGAGAGTTCGACATTCCCGAAAGTACGACGAAAGTCCAGAGCAGGTACGGTGTCA
For the molecule B1, the IC50 came to 0.132 µM in data set [1] and 0.047 µM in data set [2].

B2: Apt 6 (ssDNA)
DNA: ATAGTCCCTGGCGTGCTTGACAGCAACACGAACACTGAACGTTCTTAACAAGCCTGGCAGAGCAGGTACGGTGTCA
Turning to B2, the figures for the IC50 in data set [1] and in data set [2] were 0.035 µM and 0.033 µM, respectively.
